Source: US20250163183A1 (COAGULANT THERAPEUTICS, published 2025)
Numbering of substitutions follows the chain as printed.

B1: SR16983-R2-P3-E06 (VHH)
VHH: QLQLVESGGGLVQAGGSLRLSCVASGRTVGSYAVAWFRQAPGKERELLAASSRSTGNTVYADSVKGRFTIARDDAKNTLYLQMNSLKPEDTAVYYCAARASINYNYANWPYWGQGTQVTVSS
B2: SR16983-R3-P5-G12 (VHH)
VHH: B1 VHH
B3: SR16983-R3-P2-B05 (VHH)
VHH: QLQLVESGGGLVQAGGSLRLSCAASGTTSSLNLMGWYRQAPGKKRESVAHMTSDGRTDYVDSVKGRFTISRDNSKNTVYLQMNNLKPEDTAVYICYANPFLGSWSNYWGQGTQVTVSS
notes: The cell prints 55 (a CDR1 entry); to be checked
B4: SR16983-R3-P4-A07 (VHH)
VHH: QVQLVESGGGLVQAGGSLRLSCAASGRTFVGSYVMGWFRQAPGKEREFVAASSRSTGNTVYLDSVKGRFTVSRDDAKNTLYLQMNSLKPEDTAVYYCATRASINYNYAAWPYWGQGTQVTVSS
B5: SR16983-R3-P2-D12 (VHH)
VHH: QLQLVESGGGLVQAGGSLRLSCAASGSTFNFNIMGWYRQVPGKQRELVAVINSGGSADYTEDVKGRFTISRDNAKSIMYLQMNSLKPEDTAVYYCNAKKVEPTLFTTTYWGQGTQVTVSS
B6: SR16983-R2-P3-F07 (VHH)
VHH: QLQLVESGGGLVQAGGSLRLSCAASGTTFDMNSMGWYRQAPGFKRDLVATISIGGDTNYTDSVKGRFTISRDNAKNTVYMQMNSLKPEDTAVYYCNAERIWPNRRSFWGQGTQVTVSS
B7: SR16983-R3-P5-D01 (VHH)
VHH: B6 VHH with M34I, F43K, K44Q, D46E, D56S, T60A, D72G, S106T
B8: SR16983-R3-P4-H10 (VHH)
VHH: QVQLVESGGGLVQAGGSLRLSCAASGLTSSTYVMAWFRQAPGKEREFVSVIDSRGDTTYANSVKGRFTTSRDFGKNTVYLQMNSLQPEDTALYYCAARASPAYVARLYAYWGRGTQVTVSS
B9: SR16983-R2-P2-G11 (VHH)
VHH: QVQLVESGGGLVQAGGSLRLSCAASGTTFSFNYMGWYRQAPGNQRDLVARISSGGITNYADSVKGRFTISGDNAKNVVYLQMNSLKPEDTARYYCFYNGHLNKWGQGTQVTVSS
B10: SR16983-R2-P5-H07 (VHH)
VHH: B9 VHH with N32V, D46E, G54D, I56S, A60S, T68L, D72A, V77T
B11: SR16983-R3-P2-B02 (VHH)
VHH: B9 VHH with V2L, N32V, G54D, I56S, V77I
B12: SR16983-R3-P2-E09 (VHH)
VHH: B9 VHH with V2L, I56S, G71A, V77T, Y94T, Y97W, H100Y, L101T
B13: SR16983-R3-P2-G05 (VHH)
VHH: B9 VHH with V2L, A14T, N32V, G54D, I56S, D72G, V77T
B14: SR16983-R3-P4-F06 (VHH)
VHH: B9 VHH with V2L, A23E, G26R, V77T
B15: SR16983-R3-P5-C03 (VHH)
VHH: B9 VHH with V2L, N32V, D46E, I51L, G54D, I56S, T68L, V77T
B16: SR16983-R3-P3-C06 (VHH)
VHH: QLQLVESGGGLVQPGGSLRLSCAASGFTFSTKWMYWVRQGPGKGLEWVSTIDASGGSTYYADSVKGRFTISRDNTEKKVYLQMNSLESADTAVYYCARSAGGQFRGRGTQVTVSS
B17: SR16983-R3P2G08 (VHH)
VHH: QLQLVESGGGLVQAGGSMRLSCTASGSTVRVTAGGWYRQAPGNERELVADIDNGGSTTYADSVKGRFTISRDNAKNAVDLQMNSLKPEDTAVYRCFVIAIPDSAPRPRAYWGQGTQVTVSS
B18: SR16983-R3P2H01 (VHH)
VHH: B17 VHH with E6Q, M18L, A40T, Q116E
B19: SR16983-R3-P3-G05 (VHH)
VHH: QLQLVESGGGLVQAGGSLRLSCAASGFTLDDYAIGWFRQAPGKEREGVSCIASSDGSTYYADSVKGRFTISTDNAKNTVYLQMNSLKPEDTAVYYCARGGLLLPKPELFDSWGQGTQVTVSS
B20: SR16983-R3-P3-A12 (VHH)
VHH: B19 VHH with A14P, A24V, C50S, S53T, T72S, K105R, F109Y, D110E, S111Y
B21: SR16983-R3-P4-A05 (VHH)
VHH: B19 VHH with S53T, T72S, N74A, N84D, S111G, S122T
B22: SR16983-R3P2H05 (VHH)
VHH: QLQLVESGGGLVQPGGSLRLACAASGFSFDDYAIGWFRQAPGKEREGVSCITSDGSTYYADSVKGRFTISSDYAKNTVHLQMNSLKPEDTAVYYCARGGLLLPKPELFDDWGQGTQVTVSS
B23: SR16983-R2-P4-G06 (VHH)
VHH: EVQLVESGGGLVQAGGSLRLSCTTSGSTFSITAGGWYRQAPGKQRELVADIANDGSTTYADSVKGRFTISRDNAKNTVELQMSSLKLEDTAVYLCFVVGISDSTPRPRAYWGQGTQVTVSS
B24: SR16983-R2-P2-A08 (VHH)
VHH: B8 VHH with L11V, N61K, T68S, T69I, F73N, T77A, P101A, A102S, L107M
B25: SR16983-R3P2D09 (VHH)
VHH: B1 VHH with L2V, V23A, V34M, A35G, L47F, S51F, A71S
B26: SR16983-R3-P3-F04 (VHH)
VHH: B1 VHH with V23A, V34M, A35G, L47F, A71S
B27: SR16983-R3-P3-G03 (VHH)
VHH: B1 VHH with L2V, V23A, A33V, V34M, A35G, S51F, A71S
B28: SR16983-R2-P2-E10 (VHH)
VHH: QLQLVESGGGLVQPGGSLRLSCVLSGSTFGRNVITWYRQPPGKQREFIAMITTSGSTRYADSVKGRFTMSRDTAKNTAFLQMSNLKLEDTAVYYCWTAIAGQGEYWGQGTQVTVSS
B29: SR16983-R4-P1-C07 (VHH)
VHH: B28 VHH with Q1E, L2V, L11V, P14A, S27N, R31D, T53K, N84S, L87V
B30: SR16983-R3P2A07 (VHH)
VHH: QVQLVESGGRLVQAGGSLRLSCAASGRTSSNYAMGWFRQAPGKERRFVAGISRDGADTSYADSVKGRFTILRDRSKNTADLQMNSLKPEDTAIYYCAAARGIYGEISRYTGDYESWGQGTQVTVSS
B31: SR16983-R2-P4-F09 (VHH)
VHH: QVQLVESGGGLVQAGGSLRLSCAASGFTFDDYAIGWFRQAPGKEREGIACRSTDGSTYYADSVEGRFTISSDNAKRTVYLQMNSLKPGDTAVYYCAADLMGVHRRCSGYLNLEYGMDYWAKGTLVTVSS
B32: SR16983-R3P2F4 (VHH)
VHH: QLQLVESGGGLVQAGGSLRLSCAASGRIFGTYVMGWFRQAPGKEREFVAAVSRSTGSTYADSVKGRFTISRDDAKNMLYLQMNNLRPEDTAIYYCATRASINYNYANWPYWGQGTQVTVSS
B33: SR16983-R2-P4-H08 (VHH)
VHH: B3 VHH with V12M, V60T, I94Y
B34: SR16983-R4-P1-A12 (VHH)
VHH: B3 VHH with R56D, L85V, I94Y

molecular target: T1, human protein C (PC) zymogen (human, UniProt P04070 43-197; P04070 200-461); experiment: ELISA screen, PC-coated wells, OD450, n=2 [Continued]
T1 construct: Bought
T1 sequence (P04070 43-197, chain 1 of 2): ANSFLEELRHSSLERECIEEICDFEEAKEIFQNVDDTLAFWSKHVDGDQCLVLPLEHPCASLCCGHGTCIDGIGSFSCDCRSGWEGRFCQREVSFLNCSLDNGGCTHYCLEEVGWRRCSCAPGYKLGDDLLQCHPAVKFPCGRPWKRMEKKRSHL
T1 sequence (P04070 200-461, chain 2 of 2): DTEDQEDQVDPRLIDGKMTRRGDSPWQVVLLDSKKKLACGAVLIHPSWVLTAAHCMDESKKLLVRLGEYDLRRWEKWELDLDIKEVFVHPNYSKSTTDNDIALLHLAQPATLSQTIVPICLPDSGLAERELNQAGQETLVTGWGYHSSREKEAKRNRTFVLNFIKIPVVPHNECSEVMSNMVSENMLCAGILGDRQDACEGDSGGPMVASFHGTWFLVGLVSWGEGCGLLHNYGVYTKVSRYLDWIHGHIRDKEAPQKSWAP

Binding result, no binding:
B1, B2, B3

molecular target: T1, human protein C (PC) zymogen; experiment: as above; remark: another data set of the same source

Binding result, no binding:
B4, B5, B6, B7, B8, B9, B10, B11, B12, B13, B14, B15, B16, B17, B18, B19, B20, B21, B22, B23, B24, B25, B26, B27, B28, B29, B30, B31, B32, B33, B34

molecular target: T2, human APC-PPACK (active site-blocked APC) (human, UniProt P04070 43-461, active site bound by the tripeptide inhibitor Phe-Pro-Arg-chloromethylketone (PPACK)); experiment: ELISA
T2 construct: Bought (Haematologic Technologies)
T2 sequence (P04070 other isoform, or with tags, fused parts or gaps): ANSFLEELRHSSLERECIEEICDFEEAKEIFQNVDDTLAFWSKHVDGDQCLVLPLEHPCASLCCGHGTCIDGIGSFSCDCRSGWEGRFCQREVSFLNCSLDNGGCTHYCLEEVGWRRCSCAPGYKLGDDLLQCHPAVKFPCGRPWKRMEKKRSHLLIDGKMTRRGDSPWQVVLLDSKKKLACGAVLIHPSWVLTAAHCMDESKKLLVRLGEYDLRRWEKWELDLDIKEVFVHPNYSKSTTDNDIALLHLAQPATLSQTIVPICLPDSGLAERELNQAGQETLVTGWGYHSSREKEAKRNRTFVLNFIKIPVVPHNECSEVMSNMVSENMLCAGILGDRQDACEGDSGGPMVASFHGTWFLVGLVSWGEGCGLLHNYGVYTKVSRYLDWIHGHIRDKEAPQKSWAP

Binding result, binds:
B4, B5, B6, B7, B8, B9, B10, B11, B12, B13, B14, B15, B16, B17, B19, B20, B21, B22, B23, B24, B25, B26, B27, B28, B29, B30, B31, B32, B33, B34
